Source: patent US20170119790A1, “Agents, Uses and Methods” (CYTOGUIDE A/S, priority 2009, published 2017)

Key:
[1] = system: LPS mediated TNFα stimulation; test: Rat in vivo LPS model; design: species or system Lewis rats; details: i.v., challenged with LPS, FIG. 41
CD163 = CD163 (Homo sapiens, UniProt Q86VB7); test: scFv ELISA; format: binding; details: for ELISA signal: PBS, read at 450 nm
Description: A nunc Maxisorp ELISA plate (NUNC, Roskilde, Denmark) was coated with 50 μl/well of 2 μg/ml of CD163 (purified as described in (2)) over night at 4° C. The coated plate was washed 3 times in PBS and blocked for 1 hour with 3% BSA in PBS. Fractions from scFv purification were tested by adding 100 μl/well of a 1:10 dilution of each sample in 1% BSA, PBS. The refolded protein sample was added directly to the wells (100 μl/well) and two-fold dilution series was made with dilution in 1% BSA in PBS. After 1 hour incubation at 4° C. the plate was washed 3 times in PBS again. Secondary detection was made with a 1 hour incubation of a HRP conjugated anti-His antibody (Sigma-Aldrich, Brøndby, Denmark) (1:4000 diluted in 1% BSA, PBS). After washing 3 times in PBS the ELISA was developed with […] TMB substrate (Invitrogen, Taastrup, Denmark). The reaction was stopped with 40 μl/well of 1 M H2SO4 and the plate was read in an ELISA reader at 450 nm.

Chain of CD163 (Q86VB7 42-1156): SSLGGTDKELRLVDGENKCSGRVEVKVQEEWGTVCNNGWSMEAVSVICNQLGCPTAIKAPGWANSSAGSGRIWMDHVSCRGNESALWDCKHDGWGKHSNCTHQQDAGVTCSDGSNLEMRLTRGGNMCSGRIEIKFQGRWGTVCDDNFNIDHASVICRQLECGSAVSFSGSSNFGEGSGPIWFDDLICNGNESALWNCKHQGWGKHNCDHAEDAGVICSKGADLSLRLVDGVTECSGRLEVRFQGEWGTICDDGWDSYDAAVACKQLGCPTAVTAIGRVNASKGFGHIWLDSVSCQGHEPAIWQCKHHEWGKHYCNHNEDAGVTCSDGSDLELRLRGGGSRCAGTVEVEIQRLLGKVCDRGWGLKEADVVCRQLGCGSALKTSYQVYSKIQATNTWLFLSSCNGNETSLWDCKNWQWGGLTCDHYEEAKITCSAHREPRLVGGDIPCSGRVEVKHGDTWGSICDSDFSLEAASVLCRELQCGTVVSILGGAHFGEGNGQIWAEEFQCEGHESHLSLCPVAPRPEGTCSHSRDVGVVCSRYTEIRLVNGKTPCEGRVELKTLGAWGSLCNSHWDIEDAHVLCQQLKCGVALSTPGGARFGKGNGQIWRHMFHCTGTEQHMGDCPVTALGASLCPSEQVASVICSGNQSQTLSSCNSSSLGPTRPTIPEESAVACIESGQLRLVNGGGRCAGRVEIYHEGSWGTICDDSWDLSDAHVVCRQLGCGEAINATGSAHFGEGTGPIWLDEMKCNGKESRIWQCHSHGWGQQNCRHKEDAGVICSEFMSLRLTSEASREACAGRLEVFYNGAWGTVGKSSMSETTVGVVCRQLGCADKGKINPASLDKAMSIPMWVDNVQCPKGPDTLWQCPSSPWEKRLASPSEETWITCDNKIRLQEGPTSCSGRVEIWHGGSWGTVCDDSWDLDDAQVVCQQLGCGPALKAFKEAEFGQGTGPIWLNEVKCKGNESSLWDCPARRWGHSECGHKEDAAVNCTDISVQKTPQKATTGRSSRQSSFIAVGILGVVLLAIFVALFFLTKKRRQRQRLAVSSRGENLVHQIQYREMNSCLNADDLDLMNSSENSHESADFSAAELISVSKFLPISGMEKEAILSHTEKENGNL

dilution down to which binding signals to CD163 were detected (CD163; 2 fold dilution series)	ELISA signal (CD163; 64 fold dilution in 1% BSA)	ELISA signal (CD163; 128 fold dilution in 1% BSA)	Molecule	TNFα level lower compared to vehicle [1]
			C[C@]12C=CC(=O)C=C1CC[C@@H]1[C@@H]2[C@@H](O)C[C@@]2(C)[C@H]1CC[C@]2(O)C(=O)CO [prednisolone]	5 times
128 fold	0.29	0.15	refolded scFv: scFv (VH-15 residue linker-VL), SEQ ID NO: 56, expressed in E. coli and refolded (protein, scFv sequence) scFv: MDQVQLQESGPGLVKPSETLSLTCTVSGYSITSDYAWNWIRQFPGNKLEWMGYITYSGSTYYNPSLKSRVTISVDTSKNQFSLKLSSVTAADTATYYCVSGTYYFDYWGQGTTLTVSSGGGGSGGGGSGGGGSDIVMTQSPSSLSASVGDRVTITCRASQSVSSDVAWFQQKPGKSPKPLIYYASNRYSGVPSRFSGSGSGTDFTLTISSLQAEDFAVYFCGQDYTSPRTFGGGTKLEIKREQKLISEEDL	
